One experiment has as its system A549 xenograft tumors. The experiment can be described thus: Enhancement of irinotecan therapy in A549 xenograft tumors. The format is in vivo, CB17-SCID/beige mice. The conditions noted are these: 2 mg/kg i.v. one hour before irinotecan 37.5 mg/kg i.v.; tumor volume. Here is the method: (§1) FIG. 5A-5B. Correlation of reduced DSG2 binding with the ability to open epithelial junctions. FIG. 5A) Transepithelial electrical resistance (TEER) measured on polarized colon cancer T84 cells. Cells were cultured in transwell chambers until the TEER was constant, i.e. tight junctions had formed. A total of 5 μg of dimeric Ad3 fiber knobs in PBS was then added for 1 hour to the apical chamber. TEER was measured at the indicated time points. N=6. For time points 1.5 and 4 hours the difference between JO-1 vs D261N and N186D was significant (p<0.01). The arrows indicate the addition and removal of Ad3 fiber knobs. FIG. 5B) Enhancement of irinotecan therapy. A total of 4×10^6 A549 cells were injected subcutaneously into CB17-SCID/beige mice. Once the tumor reached a volume of ˜100 mm^3 (day 15 after implantation), the mice were injected intravenously with 2 mg/kg JO-1, E299V, N186D, or PBS, followed by an intravenous injection of irinotecan (37.5 mg/kg) one hour later. The treatment was repeated on day 25. N=5. […] The difference between “irinotecan” vs “JO-1+irinotecan” was significant (p<0.01) from day 20 on.
FIG. 10A-10C. Combination of affinity-enhanced JO-1 versions with chemotherapy. FIG. 10A) Enhancement of irinotecan (I) therapy. The experimental setting was the same as in FIG. 5B. […] N=5. […] Mammary fat pad tumors were established from primary ovarian cancer ovc316 cells. Treatment was started when tumors reached a volume of 100 mm^3. Mice were injected intravenously with 2 mg/kg JO-1 or with 0.5 mg/kg JO-4, followed by an intravenous injection of PEGylated liposomal doxorubicin (PLD) (1 mg/kg) one hour later. Treatment was repeated weekly. […] A total of 4×10^6 TNBC MDA-MB-231 cells were injected into the mammary fat pad of CB17 SCID-beige mice. JO-4 (2 mg/kg) was intravenously injected 1 hour before the application of cetuximab (C) (10 mg/kg, i.p.) and nab-paclitaxel (nab-P) (5 mg/kg, i.v.). Treatment was given weekly. N=10 P<0.01 at day 25 for nab-P+C vs JO-4+nab-P+C.
A549, MDA-MB-231, and ovc316 xenograft tumors were established by injection of the corresponding tumor cells into the mammary fat pad (1:1 with Matrigel) of CB17 mice. TC1-DSG2 tumors were established by subcutaneous injection of TC1-DSG2 cells into DSG2 transgenic mice. JO-0, JO-1, JO-2, or JO-4 were intravenously injected one hour before the application of chemotherapeutic drugs: Irinotecan/Camptosar™ (Pfizer Inc., Groton, CT), PEGylated liposomal doxorubicin/Lipodox™ (Sun Pharmaceuticals IN, India), cetuximab/Erbitux™ (ImClone, Somerville, NJ), nanoparticle albumin conjugated paclitaxel/Abraxane” (Abraxis Biosciences, Summit, NJ). Tumor volumes were measured three times a week. Each treatment group consisted of a minimum of 5 mice.

The subject of experiment [1] is polarized colon cancer T84 cells. The experiment can be described thus: Transepithelial electrical resistance (TEER) on polarized T84 cells. The format is cell-based. Particulars: for Effect on the TEER: added for 1 hour to the apical side of transwell cultures; for TEER compared to JO-1: dimeric affinity-enhanced mutants, TEER at 4 hours. Here is the method: as §1
FIG. 9A1-9C. Analysis of dimeric Ad3 fiber knob mutants with increased affinity to DSG2. FIG. 9A1-9A2) Competition of Ad3-GFP virus infection on HeLa cells with dimeric affinity-enhanced mutant Y250F and JO-1 (dimeric wt Ad3 fiber knob). The experimental setting is as described for FIG. 3C. FIG. 9A1) percentage of GFP positive cells. FIG. 9A2) mean fluorescence intensity. N=3. The standard deviation was less than 10%. FIG. 9B1-9B2) Competition of Ad3-GFP virus infection on HeLa cells by Ad3 knob mutants with enhanced DSG2 binding but without dimerization domain. 1.5×10^5 HeLa cells were seeded into 24 well plates. Cells were incubated with the Ad3 knob mutants at the increasing concentrations for one hour at room temperature. 100 pfu/cell of Ad3GFP virus were then added and GFP expression was analyzed 18 hours later. FIG. 9B1) % of GFP+cells; FIG. 9B2) MFI. FIG. 9C) TEER on colon cancer T84 cells. The experimental setting was the same as for FIG. 5A. The TEER at 4 hours is shown. N=3.
Permeability assay. A total of 5×10^5 T84 cells were seeded in 12 mm transwell inserts (PET membrane, with 0.4 μm pore size (Corning, NY) and cultured for >14 days until transepithelial electrical resistance (TEER) was stable. Culture medium was changed every 2-3 days. The cells were exposed to DSG2 ligands (20 μg/ml) in adhesion medium (DMEM, 1% FBS, 2 mM MgCl2, 20 mM HEPES) for 15 min at room temperature and TEER was measured and calculated as described elsewhere (39).

B1: N186D (protein)
chain: MKVSALKEKVSALKEKVSALKEKVSALKEKVSALKEGSGGGSGGGSGGGSNSIALKNNTLWTGPKPEANCIIEYGKQNPDSKLTLILVKNGGIVNGYVTLMGASDYVNTLFKDKNVSINVELYFDATGHILPDSSSLKTDLELKYKQTADFSARGFMPSTTAYPFVLPNAGTHNENYIFGQCYYKASDGALFPLEVTVMLNKRLPDSRTSYVMTFLWSLNAGLAPETTQATLITSPFTFSYIREDD
Regarding B1, in the experiment with A549 xenograft tumors, the “Enhancement of irinotecan therapy” value is reported as “not significant”. The “Effect on the TEER” value in experiment [1] was “intermediate effects”.

B2: K217E+F224S (protein)
chain: MKVSALKEKVSALKEKVSALKEKVSALKEKVSALKEGSGGGSGGGSGGGSNSIALKNNTLWTGPKPEANCIIEYGKQNPDSKLTLILVKNGGIVNGYVTLMGASDYVNTLFKNKNVSINVELYFDATGHILPDSSSLKTDLELEYKQTADSSARGFMPSTTAYPFVLPNAGTHNENYIFGQCYYKASDGALFPLEVTVMLNKRLPDSRTSYVMTFLWSLNAGLAPETTQATLITSPFTFSYIREDD
Consider B2, for which, in experiment [1], the “TEER compared to JO-1” value was “significantly higher”.

B3: E299V (protein)
chain: MKVSALKEKVSALKEKVSALKEKVSALKEKVSALKEGSGGGSGGGSGGGSNSIALKNNTLWTGPKPEANCIIEYGKQNPDSKLTLILVKNGGIVNGYVTLMGASDYVNTLFKNKNVSINVELYFDATGHILPDSSSLKTDLELKYKQTADFSARGFMPSTTAYPFVLPNAGTHNENYIFGQCYYKASDGALFPLEVTVMLNKRLPDSRTSYVMTFLWSLNAGLAPVTTQATLITSPFTFSYIREDD
Take B3: in the experiment with A549 xenograft tumors, the “Enhancement of irinotecan therapy” value was “not significant”. In addition, the “Effect on the TEER” value in experiment [1] is “intermediate effects”.

B4: V239D (protein)
chain: MKVSALKEKVSALKEKVSALKEKVSALKEKVSALKEGSGGGSGGGSGGGSNSIALKNNTLWTGPKPEANCIIEYGKQNPDSKLTLILVKNGGIVNGYVTLMGASDYVNTLFKNKNVSINVELYFDATGHILPDSSSLKTDLELKYKQTADFSARGFMPSTTAYPFDLPNAGTHNENYIFGQCYYKASDGALFPLEVTVMLNKRLPDSRTSYVMTFLWSLNAGLAPETTQATLITSPFTFSYIREDD
Regarding B4, the “TEER compared to JO-1” value in experiment [1] is “significantly higher”.

The values are drawn from patent publication US12466859B2, “Desmoglein 2 (DSG2) binding proteins and uses therefor” (UNIVERSITY OF WASHINGTON THROUGH ITS CENTER FOR …, priority 2013, dated 2025).
